Numbered stars: 1 amine (or outer) side, 2 acyl side, 3 side chain; on linkers, the order of the positions; unused ones are H or OH. Square brackets hold non-standard residues; d marks the D form. Ends that are not written are not given here. * marks the point of attachment. Pro(trans-4-NH2) = O=C([C@@H]1C[C@@H](N[*:3])CN1[*:1])[*:2]; Sni = (S)-nipecotic acid, O=C([C@H]1CCCN([*:1])C1)[*:2]; Egg = 2-Amino-3-piperidin-4-yl-propionic acid; Fhy = Amino-piperidin-3-yl-acetic acid; Hyp = O=C(O)[C@@H]1C[C@@H](O)CN1; NMeL = CN[C@@H](CC(C)C)C(=O)O; AR‑201‑58 = not defined here; AR‑201‑59 = not defined here; AR‑201‑62 = not defined here; AR‑201‑69 = not defined here; Tle = CC(C)(C)[C@H](N)C(=O)O; Ac6c = NC1(C(=O)O)CCCCC1; Nle = CCCC[C@H](N)C(=O)O; Octanoyl = CCCCCCCC(=O)*; Orn = NCCC[C@H](N)C(=O)O; dDap = NC[C@@H](N)C(=O)O; Ac5c = NC1(C(=O)O)CCCC1; Api = NC1(C(=O)O)CCNCC1; Et2 = not defined here; Hexanoyl = CCCCCC(=O)*; Nbt = 4-butyl-thiazole; Oct = not defined here; Sbt = 5-butyl-thiazole; Occ = octanoic acid
T1: natriuretic peptide receptor-B (human)
T1 chain: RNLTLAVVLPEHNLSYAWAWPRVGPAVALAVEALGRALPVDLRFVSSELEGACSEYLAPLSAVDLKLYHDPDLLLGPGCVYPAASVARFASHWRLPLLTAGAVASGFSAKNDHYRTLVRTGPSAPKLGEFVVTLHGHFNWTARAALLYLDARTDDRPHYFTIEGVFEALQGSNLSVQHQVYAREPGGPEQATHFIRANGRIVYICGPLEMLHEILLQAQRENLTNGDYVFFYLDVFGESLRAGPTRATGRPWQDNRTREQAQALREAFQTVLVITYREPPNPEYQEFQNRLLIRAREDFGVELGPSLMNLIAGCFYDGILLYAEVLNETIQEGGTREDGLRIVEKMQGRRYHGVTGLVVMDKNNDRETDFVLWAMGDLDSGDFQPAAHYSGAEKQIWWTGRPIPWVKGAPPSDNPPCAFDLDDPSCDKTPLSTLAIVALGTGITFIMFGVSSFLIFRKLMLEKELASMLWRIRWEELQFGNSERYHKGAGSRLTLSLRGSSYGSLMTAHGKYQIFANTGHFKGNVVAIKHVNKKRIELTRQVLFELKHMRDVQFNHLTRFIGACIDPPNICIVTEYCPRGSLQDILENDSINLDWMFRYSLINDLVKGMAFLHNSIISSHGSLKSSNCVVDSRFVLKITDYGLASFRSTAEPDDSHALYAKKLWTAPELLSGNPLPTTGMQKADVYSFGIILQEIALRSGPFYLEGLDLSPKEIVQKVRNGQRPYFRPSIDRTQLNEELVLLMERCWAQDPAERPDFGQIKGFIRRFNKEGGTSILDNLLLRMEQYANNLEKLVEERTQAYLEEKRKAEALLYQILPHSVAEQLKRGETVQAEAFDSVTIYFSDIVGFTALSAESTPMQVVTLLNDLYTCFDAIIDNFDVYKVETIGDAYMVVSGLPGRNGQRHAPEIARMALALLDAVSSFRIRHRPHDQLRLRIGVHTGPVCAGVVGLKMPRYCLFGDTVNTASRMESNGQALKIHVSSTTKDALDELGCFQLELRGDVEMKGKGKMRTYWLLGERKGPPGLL

B1: JAL-1342 (peptide)
peptide: [AR‑201‑69]F[dR]L[Hyp][NMeL]DRI-NH2
modifications: reading uncertain; also: printed as (AR-201-69)-Phe-arg-Leu-Hyp-Nml-Asp-Arg-Ile-NH2
B2: JAL-0647 (peptide)
peptide: XXFGLKLDRI
HELM: PEPTIDE1{[CCCCCC(=O)[*:2]].[O=C(c1cccc(CN[*:1])c1)[*:2]].F.G.L.K.L.D.R.I.[am]}$$$$V2.0
SMILES: CCCCCC(=O)NCc1cccc(C(=O)N[C@@H](Cc2ccccc2)C(=O)NCC(=O)N[C@@H](CC(C)C)C(=O)N[C@@H](CCCCN)C(=O)N[C@@H](CC(C)C)C(=O)N[C@@H](CC(=O)O)C(=O)N[C@@H](CCCNC(=N)N)C(=O)N[C@H](C(N)=O)[C@@H](C)CC)c1
B3: JAL-1340 (peptide)
peptide: [AR‑201‑59]F[dR]L[Hyp][NMeL]DRI-NH2
modifications: reading uncertain; also: printed as (AR-201-59)-Phe-arg-Leu-Hyp-Nml-Asp-Arg-Ile-NH2
B4: JAL-1341 (peptide)
peptide: [AR‑201‑62]F[dR]L[Hyp][NMeL]DRI-NH2
modifications: reading uncertain; also: printed as (AR-201-62)-Phe-arg-Leu-Hyp-Nml-Asp-Arg-Ile-NH2
B5: JAL-1348 (peptide)
peptide: Octanoyl-[Sni]F[dL]L[Pro(trans-4-NH2)](Et2)[NMeL]DRI-NH2
modifications: reading uncertain; also: printed as Occ-Sni-Phe-leu-Leu-Tap(Et2)-Nml-Asp-Arg-Ile-NH2
B6: JAL-1339 (peptide)
peptide: [AR‑201‑58]F[dR]L[Hyp][NMeL]DRI-NH2
modifications: reading uncertain; also: printed as (AR-201-58)-Phe-arg-Leu-Hyp-Nml-Asp-Arg-Ile-NH2

Target: T1, natriuretic peptide receptor-B
Assay: cell-based or functional assay

How did the “EC50 group, cGMP in GTM-3 cells” value turn out when [Occ][Sni]F[Api]L[Pro(trans-4-NH2)][NMeL]DRI-NH2 [JAL-1351] was run?
The value was ≤ 1 µM.

Octanoyl-[Sni]F[dL]L[Pro(trans-4-NH2)](Et)[NMeL]DRI-NH2 [JAL-1349] was tested. Which “EC50 group, cGMP in GTM-3 cells” value did it give?
The value was ≤ 1 µM.

How did the “EC50 group, cGMP in GTM-3 cells” value turn out when Octanoyl-[dA]F[dR]L[Hyp][NMeL]D[Nle]I-NH2 [JAL-1361] was run?
The value was ≤ 15 µM.

B1 was tested. Which “EC50 group, cGMP in GTM-3 cells” value did it give?
Its value is ≤ 5 µM.

For [Occ][dA]F[dL]L[Hyp][NMeL]DR[Ac5c]-NH2 [JAL-1335], which “EC50 group, cGMP in GTM-3 cells” value is on record?
Its value is ≤ 5 µM.

[Occ][dA]F[dR]L[Hyp][NMeL]TRI-NH2 [JAL-1333] was tested. Which “EC50 group, cGMP in GTM-3 cells” value did it give?
Its value is ≤ 5 µM.

[Occ][dA]F[Api]L[Hyp][NMeL]DRI-NH2 [JAL-1338] was tested. Which “EC50 group, cGMP in GTM-3 cells” value did it give?
The value was ≤ 1 µM.

With Octanoyl-[dA]F[dR]L[Hyp][NMeL]DR[Ac6c]-NH2 [JAL-1359] as the binder, how does the “EC50 group, cGMP in GTM-3 cells” value read?
Its value is ≤ 5 µM.

For B2, which “EC50 group, cGMP in GTM-3 cells” value is on record?
The value was ≤ 15 µM.

Which “EC50 group, cGMP in GTM-3 cells” value does the source give for [Occ][dA]F[dL]L[Hyp][NMeL]D[Orn]I-NH2 [JAL-1328] here?
The value was ≤ 5 µM.

With Octanoyl-[dA]F[Api]L[Pro(trans-4-NH2)][NMeL]DRI-NH2 [JAL-1350] as the binder, how does the “EC50 group, cGMP in GTM-3 cells” value read?
The value was ≤ 1 µM.

How did the “EC50 group, cGMP in GTM-3 cells” value turn out when Octanoyl-[dA]F[dL]L[Hyp][NMeL]DR[Ac6c]-NH2 [JAL-1358] was run?
Its value is ≤ 1 µM.

For [Oct][Sni]F[dL]L[Pro(trans-4-NH2)][NMeL]DRI-NH2 (reading uncertain; also: printed as Oct-Sni-Phe-leu-Leu-Tap-Nml-Asp-Arg-Ile-NH2) [JAL-1326], which “EC50 group, cGMP in GTM-3 cells” value is on record?
The value was ≤ 1 µM.

For B3, which “EC50 group, cGMP in GTM-3 cells” value is on record?
Its value is ≤ 15 µM.

How did the “EC50 group, cGMP in GTM-3 cells” value turn out when Octanoyl-[dA]F[dL]L[Hyp][NMeL]D[Nle]I-NH2 [JAL-1360] was run?
The value was ≤ 15 µM.

With B4 as the binder, how does the “EC50 group, cGMP in GTM-3 cells” value read?
The value was ≤ 5 µM.

With [Occ][dA]F[dR]L[Hyp][NMeL]D[Orn]I-NH2 [JAL-1327] as the binder, how does the “EC50 group, cGMP in GTM-3 cells” value read?
Its value is ≤ 5 µM.

Which “EC50 group, cGMP in GTM-3 cells” value does the source give for Octanoyl-[dA]F[dR]L[Hyp][NMeL]IRI-NH2 [JAL-1362] here?
Its value is ≤ 15 µM.

With B5 as the binder, how does the “EC50 group, cGMP in GTM-3 cells” value read?
Its value is ≤ 5 µM.

Which “EC50 group, cGMP in GTM-3 cells” value does the source give for B6 here?
The value was ≤ 15 µM.

Which “EC50 group, cGMP in GTM-3 cells” value does the source give for Hexanoyl-S[dP]FGLKLDRI-NH2 [JAL-0638] here?
The value was ≤ 15 µM.

How did the “EC50 group, cGMP in GTM-3 cells” value turn out when Hexanoyl-G[dP]FGLKLDRI-NH2 [JAL-0636] was run?
Its value is ≤ 15 µM.

Which “EC50 group, cGMP in GTM-3 cells” value does the source give for [Occ][dA]F[Fhy]L[Hyp][NMeL]DRI-NH2 [JAL-1336] here?
Its value is ≤ 1 µM.

For [Sbt][dA]F[dR]L[Hyp][NMeL]DRI-NH2 [JAL-1345], which “EC50 group, cGMP in GTM-3 cells” value is on record?
The value was ≤ 15 µM.

How did the “EC50 group, cGMP in GTM-3 cells” value turn out when [Sbt][Sni]F[dR]L[Hyp][NMeL]DRI-NH2 [JAL-1343] was run?
Its value is ≤ 1 µM.

For Nbt-[dA]F[dR]L[Hyp][NMeL]DRI-NH2 [JAL-1346], which “EC50 group, cGMP in GTM-3 cells” value is on record?
The value was ≤ 15 µM.

With [Nbt][Sni]F[dR]L[Hyp][NMeL]DRI-NH2 [JAL-1344] as the binder, how does the “EC50 group, cGMP in GTM-3 cells” value read?
Its value is ≤ 5 µM.

With Octanoyl-[dA]F[dL]L[Hyp][NMeL]DR[Tle]-NH2 [JAL-1352] as the binder, how does the “EC50 group, cGMP in GTM-3 cells” value read?
The value was ≤ 1 µM.

For Octanoyl-[dA]F[dDap](Me2)L[Pro(trans-4-NH2)][NMeL]DRI-NH2 [JAL-1347], which “EC50 group, cGMP in GTM-3 cells” value is on record?
The value was ≤ 5 µM.

Which “EC50 group, cGMP in GTM-3 cells” value does the source give for [Occ][dA]F[dL]L[Hyp][NMeL]TRI-NH2 [JAL-1334] here?
Its value is ≤ 5 µM.

[Occ][dA]F[dR]L[Hyp][NMeL]VRI-NH2 [JAL-1331] was tested. Which “EC50 group, cGMP in GTM-3 cells” value did it give?
Its value is ≤ 5 µM.

With [Occ][dA]F[Egg]L[Hyp][NMeL]DRI-NH2 [JAL-1337] as the binder, how does the “EC50 group, cGMP in GTM-3 cells” value read?
The value was ≤ 5 µM.

From patent US9187525B2, “Methods of treating ophthalmic diseases using NPR-B agonists” (Shire Orphan Therapies GmbH, dated 2015)
